In the supplement of paper PMC10567573:

B1: RAB11A (parent)
chain: AVPTDEARAFAEKNGLSFIETSAL
B2: KRT71 (parent)
chain: ELRNVQDVVEDYKKRYEEEINKRT

Variants of: B1
Test: protein stability index of a GFP-peptide fusion (GPS, HEK-293T) (PSI 1-6); higher = more stable
Conditions: c terminus: a fixed tail appended
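Note: lentivirally expressed fusions sorted by FACS into six bins by GFP to DsRed ratio, PSI derived from sequencing read proportions per bin multiplied by bin number.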

Protein stability index, by site and new letter:
E6: Q 2.52; L 1.6; T 1.71; H 1.87; G 1.87
T4: M 2.12; H 2.6; K 2.39; N 2.22; V 1.93
A11: H 2.64; D 3.24; R 2.12; Q 2.21; I 1.91
R8: M 2.4; P 1.86; Q 2.66; E 3.25; K 2.61; F 1.97
F18: L 4.14; V 4.35; Q 4.33; E 4.57; S 4.62; K 4.2; C 4.29; T 4.32; R 4.22
T21: I 1.8; R 2.5; F 2.37
E20: Y 2.35; T 2.41; N 2.24; L 1.74; R 2.5; K 2.8; H 1.87; C 2.01
P3: G 2.41; I 2.36; V 2.14; E 2.47; N 2.77; D 3.01; C 1.67
A9: H 1.97; W 2.27; Q 2.62; M 2.35; T 2.96; P 2.08; E 3.13
G15: Q 2.58; Y 1.74; S 2.06; T 1.7; V 2.64; E 3.33
I19: G 4.5; W 3.92; M 3.91; C 3.45; N 4.43; A 4.39
E12: D 2.54; C 2.85; S 2.01; R 2.55; M 1.54; I 1.39; G 1.9; Y 1.74
K13: L 2.17; F 2.24; N 2.43; W 4.07; G 3.15; H 1.77; T 2.18
A1: D 2.82; E 2.72; C 1.45; H 2.63; Y 2.23; G 2.77; W 1.8; N 2.4; R 2.46
L24: N 4.47; R 2.63; D 4.79; S 4.39; A 4; H 4.06
L16: G 4.35; C 3.66; N 4.05; T 4.14; E 4.73; I 3.85
S17: Q 4.02; C 2.52; R 3.08; D 3.14; M 2.81
S22: C 2.54; H 2.22; T 2.49
F10: S 2.84; I 2.44; G 2.24; T 2.91; K 2.37; E 3.81
A23: D 4.18; H 2.04; W 1.55
A7: S 2.68; V 2.25; K 2.19; Q 2.87; T 2.57; E 3.29
N14: Q 2.85; E 3.54; W 1.74; A 1.96; I 2.13; D 3.62; F 2.25; M 1.92
V2: C 2.15; S 2.48; E 2.97; I 2.18
D5: Q 2.07; N 1.95; S 2.19; R 1.99

Variants of: B2
Test: as above
Conditions: c terminus: a fixed tail appended

Protein stability index: each site, then its substitutions
E1: H 4.05; F 4.14; K 3.95; S 4.07; C 2.23; Q 4.03; G 2.72; L 3.9; N 3.49
V8: G 3.49; S 4.53; N 3.38; Q 4.19; W 3.73; C 3.77; H 2.88; A 3.37; I 3.45; F 3.97; M 3.23; E 3.98; P 3.67; D 4.42; K 3.43; L 4.3
Q6: C 2.77; I 2.54; G 3.36; T 3.4; N 4.58; W 3.41; F 4.1; A 3.85; K 3.75; S 4.01; P 4.41; Y 3.18; M 3.14; H 3.15
V9: Q 3.66; F 3.49; N 3.24; E 4.64; T 3.73; A 3.69; S 4.35; L 3.03; G 4.2; I 3.74; Y 3.62; D 4.93; W 4.36; K 3.48; P 4.21; R 2.95; H 4.4
R3: Q 4.13; W 3.47; H 2.78; F 4.32; M 4.14; P 4.1; T 3.35; Y 3.86; E 4.15; L 2.37
N4: R 4.48; Y 3.59; D 4.68; K 4.51; A 4.38; E 4.45; I 4.37; M 3.77; P 4.67; W 3.17; G 3.65; C 3.9; F 3.11; H 4.45; S 4.32; T 4.08
L2: M 3.99; N 5.02; A 5.76; D 5.94; C 3.53; P 4.96; G 5.65; S 5.01
Y12: N 4.89; I 3.13; K 3.08; D 4.2; V 4.23; M 4.56; R 3.66; F 3.85; H 4.09; E 2.66; L 3.22; P 3.53; W 3.98; Q 4.12; T 4.05; C 4.07; S 4.26
K14: A 3.17; H 4.26; G 4.76; C 3.3; L 2.97; E 4.51
K13: R 4.62; W 3.34; S 3.51; P 2.97; Y 3.2; Q 3.71; N 3.34; M 3.12; A 4.07; E 4.74; F 4.07; V 3.25; C 2.71; I 3.27; H 3.73; G 3.93
E10: Y 3.26; K 3.14; V 3.11; R 4; S 3.65; C 3.62; M 3.57; Q 3.13; T 4.45; P 3.41; I 3.54; H 3.71; F 4.36; A 3.17; W 2.43; N 4.22
D11: M 3.31; P 3.44; A 3.55; N 3.63; E 3.5; Q 4.23; K 2.82; S 3.69; H 3.77; F 3.01; L 3.95; I 2.82; T 3.63; R 3.29; C 3.98
V5: C 3.98; P 5.56; Q 4.24; H 4.37; K 3.75; I 3.88; F 3.38; R 3.22; M 3.87; A 3.8; W 3.7; G 3.92; E 4.43; S 4.01; D 4.58; Y 3.64; N 3.59
D7: L 3.54; I 2.62; A 3.68; N 3.36; H 3.13; Q 4.58; V 3.23; P 3.17; F 3.28; C 3.35; E 3.1; M 3.35; Y 3.06; K 3.28; S 3.6
